Patent publication US5811533
Like-named read-outs stand apart in the source and are kept apart here.

What was measured:
[1] = system: T1, VEGF165 (recombinant human vascular endothelial growth factor, 165 aa form) (Homo sapiens), P15692-4; assay: filter
T1 sequence: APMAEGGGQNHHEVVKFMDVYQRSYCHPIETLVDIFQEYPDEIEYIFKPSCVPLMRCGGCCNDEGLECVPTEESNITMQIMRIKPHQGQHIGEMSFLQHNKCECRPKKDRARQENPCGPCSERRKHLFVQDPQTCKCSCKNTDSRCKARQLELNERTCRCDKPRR

PDGF = assay: filter; conditions: specificity
[2] = 2'-NH2 pyrimidines, random pool

Row | Sequence | Kd [1] | other results
1 | CTACCTACGATCTGACTAGCACGCAAGAGAGGTCNCCGAATGGCAGTCTCAGCCGCTAACAGCTTACTCTCATGTAGTTCCT [ssDNA b91] |  | Kd ([1]; clone listed in families 1 and 2): 3.9 nM
2 | CTACCTACGATCTGACTAGCATCCTTCCGAATGGGGGAAATGGCGNCCCAGCTTACTCTCATGTAGTTCCT [ssDNA b89] | 2 nM | 
3 | GGGAGACAAGAAUAACGCUCAANNNNNNNNNNNNNNNNNNNNNNNNNNNNNNUUCGACAGGAGGCUCACAACAGGC [Random RNA A (30N8)] |  | Kd [1, 2]: 83 nM
4 | CTACCTACGATCTGACTAGCCCACTGCATAGAGATACTGGATTCGACNNNCCAAAGTTTCGGTGCTTAGCTTACTCTCATGTAGTTCCT [ssDNA b96] | 1.5 nM | 
5 | ATCCGCCTGATTAGCGATACTNNNNNNNNNNNNNNNNNNNNNNNNNNNNNNNNNNNNNNNNACTTGAGCAAAATCACCTGCAGGGG [starting random ssDNA pool] |  | Kd ([1]; random pool): 200 nM
6 | GGCCGGUAGUCGCAUGGCCCAUCGCGCCCGG [ligand 100t] |  | Kd (PDGF): 600 nM
7 | CTACCTACGATCTGACTAGCTGCNNGCGGGCGGTTCTCCGGATGGGACCATAAGGCTTTAGCTTAGCTTACTCTCATGTAGTTCCT [ssDNA b54] | 2.5 nM | 
8 | GGGAGCUCAGAAUAAACGCUCAANNNNNNNNNNNNNNNNNNNNNNNNNNNNNNUUCGACAUGAGGCCCGGAUCCGGC [random RNA pool (30N)] |  | Kd ([1]; random pool): 200 nM
9 | GGGAGGACGAUGCGGNNNNNNNNNNNNNNNNNNNNNNNNNNNNNNNNNNNNNNNNNNNNNNNNNNCAGACGACUCGCCCGA [Random RNA B (50N7)] |  | Kd [1, 2]: 240 nM
10 | CTACCTACGATCTGACTAGCCCACTGCAGAGAGTCAACCTTACGANGCCAAGGTTGCGGTGCTTAGCTTACTCTCATGTAGTTCCT [ssDNA b97] | > 1 nM | 
11 | TGGACTAGAGGNCAGCAAACGATCCTTGGTTCGCGTCC [32t] | 17 nM | 
12 | ATCCGCCTGATTAGCGATACTGGTGGACTAGAGGNCAGCAAACGATCCTTGGTTCGCGTCCACTTGAGCAAAATCACCTGCAGGGG [ssDNA 32] | 2 nM | 
13 | CTACCTACGATCTGACTAGCCCACTGCATAGAGAGTCGCAAGACACGGTGCTTTATTCNCCGCTTAGCTTACTCTCATGTAGTTCCT [ssDNA b62] | 2.9 nM | 
14 | GGAAGCUUGAUGGGUGACACACGUCAUGCCGAGCU [ligand 44t] |  | Kd (PDGF): 600 nM
15 | ATCCGCCTGATTAGCGATACTGGTGTGAACCAGACCTACNGGAACGTTATCGCTTGTGACTTGAGCAAAATCACCTGCAGGGG [ssDNA 44] | 0.4 nM | 
16 | CTACCTACGATCTGACTAGCACAAGGGGTCCTGNNGAATGGGGGAATACGCTAGCCGAAGCTTACTCTCATGTAGTTCCT [ssDNA b55] | 15 nM | 
